Source: patent US20260209316A1

Tests used:
[1] = target: full-length Sudan GP (GPFL) (Sudan virus (SUDV)) (UniProt Q7T9D9); assay: BLI, Fab, pH 7.4
[2] = target: full-length Sudan GP (GPFL) (Sudan virus (SUDV)) (UniProt Q7T9D9); assay: BLI, Fab, pH 5.3
[3] = target: thermolysin-cleaved SUDV GP (GP(S)THL) (Sudan virus (SUDV)) (UniProt Q7T9D9); assay: BLI, Fab, pH 7.4
[4] = target: thermolysin-cleaved SUDV GP (GP(S)THL) (Sudan virus (SUDV)) (UniProt Q7T9D9); assay: BLI, Fab, pH 5.3

B1: Fab generated from 246S (Fab, V domains shown)
VH: QVQLVQSGAEVKKPGSSVKVSCKASGDTFSTYAITWVRQAPGQGLEWMGRIIPILGVTNYAQKFQGRVTFTADKSTITAYLELVNLRSEDTAVYYCTRDGYGGRDLLLNYYWGQGTLVTVSS
VL: EIVLTQSPGLLFWFPGERATLSCRASQSVSSSKLAWYQQKPGQAPRLLIYGASSRAPGIPDRFSGSGSGTDFTLTINRLEPEDFAVYFCQQYGSAQWTFGQGTKVDFK
For B1, the Kd [1] was 23.2 nM, the koff [1] was 0.000493 s⁻¹ and the kon [1] was 21200 M⁻¹ s⁻¹. For the same binder, the Kd [2] was 34.2 nM, the koff [2] was 0.000384 s⁻¹ and the kon [2] was 11200 M⁻¹ s⁻¹.

B2: Fab generated from 291S (Fab, V domains shown)
VH: QVQLQESGPGLVKPSQTLSLTCTVSGGSFSSGFYWSWIRQRPGKGLEWVGYTYYSGSTYYNPSLQSRVTISVDTSKNQFSLNLSSVTAADTAVYHCARADYGGLFDYWGQGILVTVSS
VL: QSVLTQPSSLSASPGASASLTCTLRSGINVGTYRIFWYQQKPGSPPQFLLRYNSDSDKQQGSGVPSRFSGSKDASANAGILLISGLQSEDEADYYCMIWHTSAWVFGGGTKLTVL
For B2, the Kd [3] was 0.19 nM, the koff [3] was 5.1e-05 s⁻¹ and the kon [3] was 264000 M⁻¹ s⁻¹. For the same binder, the Kd [4] was 0.67 nM, the koff [4] was 0.000166 s⁻¹ and the kon [4] was 248000 M⁻¹ s⁻¹.
